In assay [1] the target is dynamic microtubules grown from coverslip-anchored biotinylated GMPcPP seeds (bovine brain tubulin) (bovine) (UniProt Q6B856). Put plainly: laser trap bidirectional sliding friction assay; beads decorated sparsely with native kinetochore particles on the sides of coverslip-anchored dynamic microtubules; constant force 0.5-3 pN along the axis, direction reversed periodically; speeds at 1 ± 0.5 pN.

The target is the same in assay [2]. Put plainly: laser trap rupture force assay; kinetochore particles sparsely on anti-His polystyrene beads, attached near the tips of dynamic microtubules grown from coverslip-anchored seeds; preload about 1 pN, then force ramp 0.25 pN/s until detachment; growth buffer (BRB80, 1 mM GTP, tubulin).
The target is the same in assay [3]. Put plainly: laser trap bidirectional sliding friction assay; anti-His beads densely coated with recombinant Ndc80c (about 3,000 complexes a bead, not single-molecule conditions) on the sides of coverslip-anchored dynamic microtubules; constant force along the axis, direction reversed; speeds at 1 ± 0.5 pN.

For “native kinetochore particles isolated from yeast (Dsn1-6His-3Flag) (from UniProt P40568 1-576) (complex)”, in assay [1], the mean sliding speed of side-attached beads under 1 pN toward the minus end stood at 674 nm·s^-1 and the mean sliding speed of side-attached beads under 1 pN toward the plus end turned out to be 109 nm·s^-1. Moreover, in assay [2], the mean rupture strength at microtubule minus ends came out at 3.3 pN and the mean rupture strength at microtubule plus ends was 9.7 pN.
Take “recombinant human Ndc80 complex (from UniProt O14777 1-642; Q9BZD4 1-464; Q8NBT2 1-197; Q9HBM1 1-224)”: in assay [3], the mean sliding speed of side-attached beads under 1 pN toward the minus end is 464 nm·s^-1 and the mean sliding speed of side-attached beads under 1 pN toward the plus end came to 130 nm·s^-1.

These data come from article PMC11533501.
